B1: HuEM0005-87-16 (antibody, human IgG1, V domains shown)
VH: EVQLVQSGAEVKKPGASVKVSCKASGYTFTDYYINWVRQAPGQGLEWMGETIPNTGGTTYNQKFKARVTMTVDTSTSTVYMELSSLRSEDTAVYYCARYQSGSPFAYWGQGTTVTVSS
VL: EIVMTQSPATLSVSPGERATLSCKASQNVGTAVAWYQQKPGQAPRLLIYSASNRYTGVPDRFTGSGSGTEFTLTISSLQSEDFAVYYCQQHYSTPYTFGGGTKLEIK
B2: HuEM0005-87-17 (antibody, human IgG1, V domains shown)
VH: B1 VH with M70L
VL: B1 VL
B3: HuEM0005-90-13 (antibody, human IgG1, V domains shown)
VH: EVQLVQSGAEVKKPGASVKVSCKASGYTFTSHSINWVRQATGQGLEWMGYMYIGNGYTEYNEKFKGRVTLTSNTSISTAYMELSSLRSEDTAVYYCAKITPVVAPYVMDYWGQGTSVTVSS
VL: DIQMTQSPSFLSASVGDRVTITCKASQDVGTAVAWYQQKPGKAPKLLIYWASTRHTGVPDRFTGSGSGTEFTLTISSLQPEDFATYYCQQYSSYPYTFGQGTKLEIK
B4: HuEM0005-90-18 (antibody, human IgG1, V domains shown)
VH: B3 VH with M48I, V68A
VL: B3 VL with Q3V, E70D
B5: HuEM0005-90-16 (antibody, human IgG1, V domains shown)
VH: B3 VH with A24T, M48I, V68A
VL: B3 VL
B6: HuEM0005-90-14 (antibody, human IgG1, V domains shown)
VH: B3 VH with M48I, V68A
VL: B3 VL
B7: HuEM0005-90-17 (antibody, human IgG1, V domains shown)
VH: B3 VH
VL: B3 VL with Q3V, E70D
B8: HuEM0005-90-15 (antibody, human IgG1, V domains shown)
VH: B3 VH with A24T, L70M
VL: B3 VL
B9: HuEM0005-86-8 (antibody, human IgG1, V domains shown)
VH: EVQLVQSGAEVKKPGASVKVSCKASGYTFTTYGINWVRQAPGQGLEWMGYIYIGNGYTEYNEKFKGRVTMTTDTSTSTAYMELSSLRSDDTAVYYCARDLMVIAPKTMDYWGQGTTVTVSS
VL: B3 VL with F10S, L11V, A43S, E70D, Y87F, Q100G, L104V
B10: HuEM0005-86-9 (antibody, human IgG1, V domains shown)
VH: B9 VH with T72S
VL: B3 VL with F10S, L11V, A43S, E70D, Y87F, Q100G, L104V
B11: HuEM0005-86-7 (antibody, human IgG1, V domains shown)
VH: B9 VH with M48I, M70L, T72S, T74P, S77R
VL: B3 VL with F10S, L11V, E70D, Q100G, L104V
B12: HuEM0005-86-10 (antibody, human IgG1, V domains shown)
VH: B9 VH with M70L, T72S
VL: B3 VL with F10S, L11V, A43S, E70D, Y87F, Q100G, L104V
B13: HuEM0005-86-11 (antibody, human IgG1, V domains shown)
VH: B9 VH with M48I, M70L, T72S
VL: B3 VL with F10S, L11V, A43S, E70D, Y87F, Q100G, L104V
B14: HuEM0005-86-12 (antibody, human IgG1, V domains shown)
VH: B9 VH with M48I, R67K, V68A, M70L, T72S
VL: B3 VL with F10S, L11V, A43S, E70D, Y87F, Q100G, L104V
B15: HuEM0005-87-22 (antibody, human IgG1, V domains shown)
VH: B1 VH with M70L
VL: B1 VL with E1D, E70D
B16: HuEM0005-87-20 (antibody, human IgG1, V domains shown)
VH: B1 VH with T28S, R38K, M48I, R67K, V68A, M70L, V72R, T74K, V79A, S84K
VL: B1 VL
B17: HuEM0005-87-23 (antibody, human IgG1, V domains shown)
VH: B1 VH with M48I, M70L, T74K
VL: B1 VL with E1D, E70D
B18: HuEM0005-87-21 (antibody, human IgG1, V domains shown)
VH: B1 VH
VL: B1 VL with E1D, E70D
B19: HuEM0005-87-24 (antibody, human IgG1, V domains shown)
VH: B1 VH with T28S, M48I, R67K, V68A, M70L, T74K, V79A
VL: B1 VL with E1D, E70D
B20: HuEM0005-87-19 (antibody, human IgG1, V domains shown)
VH: B1 VH with T28S, M48I, R67K, V68A, M70L, T74K, V79A
VL: B1 VL
B21: HuEM0005-90-20 (antibody, human IgG1, V domains shown)
VH: B3 VH with A24T, M48I, V68A
VL: B3 VL with Q3V, E70D
B22: EM0005-90c(G55A) (antibody, human IgG1, V domains shown)
VH: QVQLKQSGAELVRPGSSVKMSCKTSGYTFTSHSINWVKQRPGQGLEWIGYMYIGNAYTEYNEKFKGKATLTSDTSSTTAYMQLSSLTSEDSAIYFCAKITPVVAPYVMDYWGQGTSVTVSS
VL: DIVMTQTHKFMSTSVGDRVSITCKASQDVGTAVAWYQQKPGQSPKLLIYWASTRHTGVPDRFTGSGSGTDFTLTISNVQSEDLADYFCQQYSSYPYTFGGGTKLELK
notes: Chimeric antibody with G55A in CDR-H2; also called HuEM0005-90C-G55A

Changes are numbered by the printed parent chain. Numbers in names are those of the source.

T1 sequence (Q9NZQ7 19-239 limits assumed): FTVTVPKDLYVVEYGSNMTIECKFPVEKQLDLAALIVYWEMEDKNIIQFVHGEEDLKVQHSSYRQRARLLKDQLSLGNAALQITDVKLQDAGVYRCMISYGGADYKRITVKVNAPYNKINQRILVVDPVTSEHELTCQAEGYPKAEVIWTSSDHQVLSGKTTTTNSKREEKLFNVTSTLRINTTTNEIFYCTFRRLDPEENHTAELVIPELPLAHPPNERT

In one assay the target is T1, human PD-L1/His fusion protein (human, UniProt Q9NZQ7 19-239). Put plainly: BLI off-rate; test group 3. As to the method:
(§1) Briefly, antibodies were characterized for affinities and binding kinetics by Octet®RED96 biolayer interferometry (Pall ForteBio LLC). Antibodies were captured by Anti-hIgG Fc Capture (AHC) Biosensors (Pall) at a concentration of 100 nM for 30 seconds. Sensors were then dipped into running buffer (1×pH 7.2 PBS, 0.05% Tween 20, 0.1% BSA) for 60 seconds to check baseline. Binding was measured by dipping sensors into a single concentration of recombinant human PD-L1/His fusion protein (Novoprotein). Dissociation was followed by dipping sensors into running buffer for 1200 seconds. The association and dissociation curves were fitted to a 1:1 Langmuir binding model using ForteBio Data Analysis software (Pall). […] The off-rate ratio serves as a data normalization. Accordingly, in each test group, the off-rate ratios of the humanized antibodies can be compared with that of the chimeric antibody, and the off-rate ratios of each of the humanized antibodies can be compared to one another within all test groups.
For B1, the “Off-Rate Ratio to that of EM0005-87c” value was found to be 69%.
For the molecule B2, the “Off-Rate Ratio to that of EM0005-87c” value is 66%.
Regarding B3, the “Off-Rate Ratio to that of EM0005-90c” value was 115%.
Turning to B4, the “Off-Rate Ratio to that of EM0005-90c” value amounted to 87%.
With B5, the “Off-Rate Ratio to that of EM0005-90c” value turned out to be 101%.
The same measure, in the same setting: the figure for B6 is 98%; for B7 it is 106%.
Consider B8, for which the “Off-Rate Ratio to that of EM0005-90c” value is 131%.

A further assay concerns the target T1, human PD-L1/His fusion protein. In words: BLI off-rate; test group 2. As to the method: as §1, with “All 15 antibodies in Table 13 were assayed for and ranked by dissociation rate constant (koff). […] Briefly,” for “Briefly,”, “check the” for “check”
Consider B9, for which the “Off-Rate Ratio to that of EM0005-86c” value was 87%.
For B10, the “Off-Rate Ratio to that of EM0005-86c” value was found to be 89%.
For the molecule B11, the “Off-Rate Ratio to that of EM0005-86c” value was 73%.
As to B12, the “Off-Rate Ratio to that of EM0005-86c” value came to 88%.
With B13, the “Off-Rate Ratio to that of EM0005-86c” value was found to be 73%.
Turning to B14, the “Off-Rate Ratio to that of EM0005-86c” value was determined as 84%.

The target is the same in another assay. Put plainly: BLI Octet RED96, antibody on AHC sensor, single conc. PD-L1/His; test group 3. As to the method: as §1
(Biolayer interferometry detects binding as a change in optical thickness at a sensor tip.)
Turning to B1, the koff – broadly, the rate constant with which the complex falls apart – worked out at 0.000932 s⁻¹.
The same measure, in the same setting: as for B2, the figure is 0.000888 s⁻¹; as for B3, 0.000439 s⁻¹.
B4 registered a koff of 0.000334 s⁻¹.
B5 had a koff of 0.000387 s⁻¹.
In the case of B6, the koff was determined as 0.000376 s⁻¹.
In turn, B7 gave a koff of 0.000405 s⁻¹.
B8: the dissociation rate constant (koff) is 0.000499 s⁻¹.

The next assay shares this target. In words: BLI Octet RED96, antibody on AHC sensor, single conc. PD-L1/His; test group 4. As to the method:
as §1
Turning to B15, the off-rate constant (koff) was determined as 0.000738 s⁻¹.
Still for that read-out and setting: as for B16, the figure is 0.000801 s⁻¹; as for B17, 0.000905 s⁻¹.
In turn, B18 showed a koff of 0.000522 s⁻¹.
On the same count and under the same terms, as for B19, the figure is 0.00101 s⁻¹; as for B20, 0.000782 s⁻¹; as for B21, 0.00249 s⁻¹.
The same measure, in the same setting: the figure for B22 is 0.00255 s⁻¹.

The target is the same in the next assay. In words: BLI off-rate; test group 4. As to the method: as §1
On to B15, for which the “Off-Rate Ratio to that of EM0005-87c” value was found to be 82%.
Consider B16, for which the “Off-Rate Ratio to that of EM0005-87c” value was 89%.
On the same count and under the same terms, the figure for B17 is 101%; for B18 it is 58%; for B19 it is 113%.
With B20, the “Off-Rate Ratio to that of EM0005-87c” value was 87%.
As for B21, the “Off-Rate Ratio to that of EM0005-90c” value turned out to be 111%.
On the same count and under the same terms, as for B22, the figure is 113%.

The next assay shares this target. Put plainly: BLI Octet RED96, antibody on AHC sensor, single conc. PD-L1/His; test group 2. As to the method:
as §1, with “All 15 antibodies in Table 13 were assayed for and ranked by dissociation rate constant (koff). […] Briefly,” for “Briefly,”, “check the” for “check”
In turn, B9 gave a koff of 0.00155 s⁻¹.
The molecule B10 came in with a koff of 0.0016 s⁻¹.
For the molecule B11, the off-rate constant (koff) was found to be 0.00131 s⁻¹.
B12 gave a koff of 0.00157 s⁻¹.
B13 yielded a koff of 0.00131 s⁻¹.
Regarding B14, the koff is 0.0015 s⁻¹.

Values taken from patent publication US20230242675A1 (SHANGHAI EPIMAB BIOTHERAPEUTICS, published 2023).
